Assay results from publication PMC11341029 (PLOS Pathogens, 2024).

B1: EBOV GP (protein)
chain: IPLGVIHNSTLQVSDVDKLVCRDKLSSTNQLRSVGLNLEGNGVATDVPSATKRWGFRSGVPPKVVNYEAGEWAENCYNLEIKKPDGSECLPAAPDGIRGFPRCRYVHKVSGTGPCAGDFAFHKEGAFFLYDRLASTVIYRGTTFAEGVVAFLILPQAKKDFFSSHPLREPVNATEDPSSGYYSTTIRYQATGFGTNETEYLFEVDNLTYVQLESRFTPQFLLQLNETIYTSGKRSNTTGKLIWKVNPEIDTTIGEWAFWETKKNLTRKIRSEELSFTVVSNGAKNISGQSPARTSSDPGTNTTTEDHKIMASENSSAMVQVHSQGREAAVSHLTTLATISTSPQSLTTKPGPDNSTHNTPVYKLDISEATQVEQHHRRTDNDSTASDTPSATTAAGPPKAENTNTSKSTDFLDPATTTSPQNHSETAGNNNTHHQDTGEESASSGKLGLITNTIAGVAGLITGGRRTRREAIVNAQPKCNPNLHYWTTQDEGAAIGLAWIPYFGPAAEGIYIEGLMHNQDGLICGLRQLANETTQALQLFLRATTELRTFSILNRKAIDFLLQRWGGTCHILGPDCCIEPHDWTKNITDKIDQIIHDFVDKTLPDQGDNDNWWTGWRQWIPAGIGVTGVIIAVIALFCICKFVF
B2: primed EBOV GP (GPcl) (domain or fragment)
chain 1: IPLGVIHNSTLQVSDVDKLVCRDKLSSTNQLRSVGLNLEGNGVATDVPSATKRWGFRSGVPPKVVNYEAGEWAENCYNLEIKKPDGSECLPAAPDGIRGFPRCRYVHKVSGTGPCAGDFAFHKEGAFFLYDRLASTVIYRGTTFAEGVVAFLILPQ
chain 2: EAIVNAQPKCNPNLHYWTTQDEGAAIGLAWIPYFGPAAEGIYIEGLMHNQDGLICGLRQLANETTQALQLFLRATTELRTFSILNRKAIDFLLQRWGGTCHILGPDCCIEPHDWTKNITDKIDQIIHDFVDKTLPDQGDNDNWWTGWRQ

Columns and labels:
[1] = biological target: T1, SLC39A9 (Homo sapiens, UniProt Q9NUM3); experiment: SPR
T1 chain: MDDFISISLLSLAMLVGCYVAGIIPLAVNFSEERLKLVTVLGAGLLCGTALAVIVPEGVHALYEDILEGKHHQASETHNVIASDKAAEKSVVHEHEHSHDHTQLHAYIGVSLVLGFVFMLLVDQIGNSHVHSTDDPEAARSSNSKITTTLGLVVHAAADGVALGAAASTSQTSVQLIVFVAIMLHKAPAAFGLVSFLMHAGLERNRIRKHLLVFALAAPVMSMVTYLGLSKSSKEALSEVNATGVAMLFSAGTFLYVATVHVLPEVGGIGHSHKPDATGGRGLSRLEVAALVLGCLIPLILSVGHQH

[2] = biological target: T2, NPC1-10×His-Flag (human, UniProt O15118 23-1278); experiment: SPR; conditions: both partners purified
T2 construct: also called purified NPC1-Flag; full-length NPC1 protein
T2 sequence (looked up): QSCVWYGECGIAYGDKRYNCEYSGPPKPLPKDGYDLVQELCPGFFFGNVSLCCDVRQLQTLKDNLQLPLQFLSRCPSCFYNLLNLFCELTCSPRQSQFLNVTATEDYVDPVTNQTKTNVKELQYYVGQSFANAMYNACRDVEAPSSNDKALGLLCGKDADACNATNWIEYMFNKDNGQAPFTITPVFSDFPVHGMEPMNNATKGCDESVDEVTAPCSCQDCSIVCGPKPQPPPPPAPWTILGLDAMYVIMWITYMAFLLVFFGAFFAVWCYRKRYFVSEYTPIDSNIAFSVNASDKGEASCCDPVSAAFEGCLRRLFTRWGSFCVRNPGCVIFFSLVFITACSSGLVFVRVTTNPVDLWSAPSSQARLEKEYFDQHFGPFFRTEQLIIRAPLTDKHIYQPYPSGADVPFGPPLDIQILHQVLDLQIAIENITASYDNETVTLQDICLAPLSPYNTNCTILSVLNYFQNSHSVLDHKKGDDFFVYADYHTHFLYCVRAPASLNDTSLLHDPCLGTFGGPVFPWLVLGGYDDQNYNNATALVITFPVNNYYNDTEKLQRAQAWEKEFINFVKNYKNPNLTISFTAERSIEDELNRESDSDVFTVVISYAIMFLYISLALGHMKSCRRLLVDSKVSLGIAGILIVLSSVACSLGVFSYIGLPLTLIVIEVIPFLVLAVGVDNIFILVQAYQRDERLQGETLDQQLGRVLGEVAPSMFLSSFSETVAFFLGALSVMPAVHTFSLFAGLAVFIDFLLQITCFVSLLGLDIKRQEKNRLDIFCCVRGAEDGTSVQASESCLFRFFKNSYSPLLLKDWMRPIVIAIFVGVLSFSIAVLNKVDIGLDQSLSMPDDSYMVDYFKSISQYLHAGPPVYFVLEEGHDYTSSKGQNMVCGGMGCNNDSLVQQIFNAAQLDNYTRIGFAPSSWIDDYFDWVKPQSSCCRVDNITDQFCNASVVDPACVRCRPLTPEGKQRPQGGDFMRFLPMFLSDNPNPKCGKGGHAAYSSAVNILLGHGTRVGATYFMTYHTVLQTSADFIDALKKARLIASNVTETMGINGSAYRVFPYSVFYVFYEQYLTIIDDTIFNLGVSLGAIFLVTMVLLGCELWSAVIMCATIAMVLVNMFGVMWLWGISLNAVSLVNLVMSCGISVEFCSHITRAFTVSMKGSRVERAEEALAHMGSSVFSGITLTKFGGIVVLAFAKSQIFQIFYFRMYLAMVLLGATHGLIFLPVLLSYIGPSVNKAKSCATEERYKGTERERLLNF

Row | Binder | Kd [1] [µM] | Kd [2] [µM]
1 | B1 | 3 | 
2 | B2 |  | 18.5
